Experiment: yeast display, Sf9 membrane polyspecificity reagent, FACS + sequencing; frameworks hold sequencing errors
Outline: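 Galactose induction of a Saccharomyces cerevisiae BJ5465 synthetic nanobody display library ran 36–48 hours. The cells were then stained for 1 hour at 4 °C with 10% biotinylated, detergent-solubilized Sf9 membrane reagent, pulled down on streptavidin microbeads and FACS-sorted into low and high (top ~1%) gates on expression and reagent-binding fluorescence. Labels for polyreactivity follow the gate of origin.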

Sequence	polyreactivity (PSR sort gate)
QVQLVESGGGLVQAGGSLRLSCAASGSIFASNAMGWYRQAPGKEREFVAAITWRTDRTYYADSVKGRFTISRDNAKNTVFLQMNSLKPEDTAVYYCAADTWFYRFYYWGQCTQVTVSS	high polyreactivity
QVQLVESGGGLVQAGGSLRLSCAASGSIFASYAMGWYRQAPGKERELVAAISRRAVRTYYADSVKGRFTISRDNAKNTVYLQMNSLKPEDTAVYYCNATRGQYVGRYYYWGQGTQVTVSS	high polyreactivity
QVQLVESGGGLVQAGGSLRLSCAASGSIFASYDMGWYRQAPGKERELVARITFNGGSTYYADSVKGRFTISRDNAKNTVYLQMNSLKPEETAVYYCNADYPWEYDYWGLGTQVTVSS	low polyreactivity
QVQLVESGGGLVQAGGSLRLSCAASGSIFATNAMGWYRQAPGKERELVASISSGGGSTYDADSVKGRFTLSRDNAKNTVYLQMNSLKPEDTAVYYCARRIGQGSRPYWLETWRYPYDYWGQGTQVTVSS	low polyreactivity
QVQLVESGGGLVQAGGSLRLSCAASGSIFAVYAMGWYRQAPGKERELVAASSTDYADSVKGRFTISRDNAKNTVYLQMNSLKPEDTAVYYCAKVGFGIPGGFYFWGQGTQVTVSS	low polyreactivity
QVQLVESGGGLVQAGGSLRLSCAASGSIFAVYAMGWYRQAPGKERELVASISRTGTTNYADSVKGRFTISRDNAKNTVYLQMNSLKPEDTAVYYCAADTWGLPDGYWYSEHPEFDYWGQGTQVTVSS	low polyreactivity
QVQLVESGGGLVQAGGSLRLSCAASGSIFAVYAMGWYRQAPGKERELVASISRTGTTNYADSVKGRFTISRDNAKNTVYLQMNSLKPEDTAVYYCNADAYLYYKYHWGFTFYQYEYWGQGTQVTVSS	low polyreactivity
QVQLVESGGGLVQAGGSLRLSCAASGSIFAVYAMGWYRQAPGKERELVASITNDGSTYADSVKGRFTISRDNAKNTVYLQINSQKPEDTAVYYCNADYLTYFTTFDYWGQGTQVTVSS	low polyreactivity
QVQLVESGGGLVQAGGSLRLSCAASGSIFAVYAMGWYRQAPGKERELVASITNDGSTYADSVKGRFTISRDNAKNTVYLQLNSLKPEDTAVYYCNADYLTYFTTFDYWGQGTQVTVSS	low polyreactivity
QVQLVESGGGLVQAGGSLRLSCAASGSIFAVYAMGWYRQAPGKERELVAVITRSGGSTYYADSVKGRFTISRDNAKNTVYLQMNSLKPEDTEVYYCAARSGYGYTRYEYWGQGTQVTVSS	high polyreactivity
QVQLVESGGGLVQAGGSLRLSCAASGSIFAVYTMGWYRQAPGKERELVAAINWSGARTYYADSVKGRFTISRDNEKNTVYLQMNSLKPEDSAVYYCAAESRLGVAYIYWGQGTQVTVSS	low polyreactivity
QVQLVESGGGLVQAGGSLRLSCAASGSIFAWYAMGWYRQAPGKERELVATITWSGGSTYYADSVKGRFTISRDNAKNTVYLQMNSLKPEDTAVYYCAAEVVGIWYDLWYQGDYWGQGTQVTVSS	low polyreactivity
QVQLVESGGGLVQAGGSLRLSCAASGSIFAWYGMGWYRQAPGKERELVAAISTAGSTNYADSVKGRFTISRDNAKNTVYLQMNSLKQEDSAVYYCAKKSSWYYPERFDYWGQGTQVNVSS	low polyreactivity
QVQLVESGGGLVQAGGSLRLSCAASGSIFAYAMGWDRQAPGKERELFAAISGGSTYYADSVKGRFTISRDNAKNTVYLQMNSLNPEDTAVYSCAADLDDERYYWGQGTQVTVSS	low polyreactivity
QVQLVESGGGLVQAGGSLRLSCAASGSIFAYNAMGRYRQAPGKEREYVAAISQSGGRTYYADSVKGRFTISRDTSKNTVYLQMNSLKPEDTAVYYCATDGIRLTRHRDYDYWGQGTQVTVSS	low polyreactivity
QVQLVESGGGLVQAGGSLRLSCAASGSIFAYNAMGWYRQAPGKEREFVAVITRSDDSTYADSVKGRFTISRDNAKNTVFLQMNRLKPEDTAVYDCAAQPFVIDGGYRGDYWGQGTQVTVSS	low polyreactivity
QVQLVESGGGLVQAGGSLRLSCAASGSIFAYNAMGWYRQAPGKERELVAAISAGGRTKYADSVKGRFTISRDNAKNTVYLQMNCLKPEDTAVYYCAAESYTGKYSWVWKWYDYWGQGTQVTVSS	low polyreactivity
QVQLVESGGGLVQAGGSLRLSCAASGSIFAYNAMGWYRQAPGKERELVAAITRSGVNTYYADSVKGRFTISRDNAKNTVYLQMNRLKPEDTAVYYCNAVFWGLQKWPQ	low polyreactivity
QVQLVESGGGLVQAGGSLRLSCAASGSIFAYNAMGWYRQAPGKERELVAGISSRGVSTYADSVKGRFTISRDNAKNTVYLQMNSLKPEDTAVYYCARGGYWGKRGRYDYWGQGTQVTVSS	low polyreactivity
QVQLVESGGGLVQAGGSLRLSCAASGSIFAYNGMGGYRQPPGKERELVAAISRRGGSTTYADSVKGRFTISRDNAKNTVYLQMNSLKPEDTAVYYCNTGAWSVRKMYYWGQGTQVTVSS	high polyreactivity
QVQLVESGGGLVQAGGSLRLSCAASGSIFAYYAMGWYRQAPGKEREFVAAISKRGGRTYYADSVKGRFTISRDNAKNTVYLQMNSLKPEDTAVYYCAAPWAYPRSGGDYWGQGTQVTVSS	high polyreactivity
QVQLVESGGGLVQAGGSLRLSCAASGSIFAYYAMGWYRQAPGKERELVAAISRRGGSTYYADSVKGRFTISRDNAKNTVYLQMNSLKPEDTAVYYCAARRSTQYKTGVDSWGQGTQVTVSS	high polyreactivity

Sequence	polyreactivity (PSR sort gate)
QVQLVESGGGLVQAGGSLRLSCAASGSIFAYYAMGWYRQAPGKERELVAAISSSGGSTTYADSVKGRFTISRDNAKNTVYLQMNSLKPEDTAVYYCNAAWRRSRYYYWGQGTQVTVSS	high polyreactivity
QVQLVESGGGLVQAGGSLRLSCAASGSIFAYYAMGWYRQAPGKESELVARITYSTDGTYYADSVKGRFTISRDNAKNTVYLQMNSLKPEDTAVYYCAVDTWWGFKRYKFDYWGQGTQVTVSS	low polyreactivity
QVQLVESGGGLVQAGGSLRLSCAASGSIFAYYSMGWYIQAPGKERELVAAISWSGGSTYYADSVKGRFTISRDNAKNTVYLQMNSLKPEDTAVYYCNVARSYSKMYWGQGTQVTVSS	high polyreactivity
QVQLVESGGGLVQAGGSLRLSCAASGSIFAYYTMGWYRQAPGKERELVARISSRGGRTYYADSVKGRFTISRDNAKNTVYLQMNSLKPEDTAVYYCNAGYSYRKYDYWGQGTQVTVSS	high polyreactivity
QVQLVESGGGLVQAGGSLRLSCAASGSIFAYYTMGWYRQAPGNERELVATISSGDITNYADSVKGRFTISRDNAKNTVYLQMNSLKPEDTAVYYCAAAELTSYYRTFIHQDYDYWGQGTQVTVSS	low polyreactivity
QVQLVESGGGLVQAGGSLRLSCAASGSIFAYYVMGWYRHAHGKERELVAAISARGGRTYYADSVKGRFTISRDNAKNTVYLQMNSLKQEDTAVYYCNALDQRYSQAVEYDYWGQGTQVTVSS	high polyreactivity
QVQLVESGGGLVQAGGSLRLSCAASGSIFCRYDMGWLDRRLGKKGSSLPLLLVLVTTRTTQTPVKGRFTISRDNAKNTVYLQIICLKPEDTAVYNCAADLRASGLKYEYWGQGTQVTVSS	low polyreactivity
QVQLVESGGGLVQAGGSLRLSCAASGSIFCYNTMGWYRQAPGKERELVAAITFSGGSTYYADSVKGRFTISRDNAKNTVYLKMNSLKPEDTAVYYCAAVFYSAVGYYYWGQGTQVTVSS	low polyreactivity
QVQLVESGGGLVQAGGSLRLSCAASGSIFDAYALGWYRQAPGKERELVADITFSAGRTYYADSVKGRFTITRDNAKNTVYLQMNSLKPEDTAVYYCAADSIVGDGYWSYYWGQGTQVTVSS	low polyreactivity
QVQLVESGGGLVQAGGSLRLSCAASGSIFDDNTMGWYRQAPGKERELVAAISSRGGSTYYADSVKGRFTISRDNAKNTVYLQMNSLKPEDTAVYYCATGPRWTWEGSRWKLEFDSWGQGTQVTVSS	low polyreactivity
QVQLVESGGGLVQAGGSLRLSCAASGSIFDDYAMGCYIHAPGKERELVAAITWNGGSTYADSVKGRFTISRDNAKNTVYLQMNSLKPEDTAVYYCAADYFVYWYYGYGYWGQGTQVTVSS	low polyreactivity
QVQLVESGGGLVQAGGSLRLSCAASGSIFDDYAMGWYRQAPGKERELVAAISDSGGSTSYADSVKGRFTISRDNAKNTVYFQMNSLKPEDTAVYYCNADRDDDYDYWGQGTQVTVSS	low polyreactivity
QVQLVESGGGLVQAGGSLRLSCAASGSIFDDYGMGWYRQAPGKEWEFVADITSRGTRTYYADSVKGRFTISRDNAKNTVYLQMNCLKPEDTAGYYFNTLVGVDFWLVDYWGQGTQVTLSS	low polyreactivity
QVQLVESGGGLVQAGGSLRLSCAASGSIFDFYAMGCYRQAPGKERELVAAISGSGGSTYYADSVKGRFTMSRDNAKNTVYLQMNSLKPEDTAVYYCSYYYWGQRTQVTVSS	low polyreactivity
QVQLVESGGGLVQAGGSLRLSCAASGSIFDFYAMGWYRQAAGKERELVASITGRGGSTYYADSVKGRFSISRDKAKNTVYFQMNSLKPEDTAVYYCAAATFGRGGFEYWGQGTKVTVSS	high polyreactivity
QVQLVESGGGLVQAGGSLRLSCAASGSIFDFYAMGWYRQAPGKEREFVAAITQSGASTYADSVKGRFTISRDNAKNTVYLQMNSLKPEDTAVYYCNADSGGRGAPTSTYDYWGQGSQVTVSS	low polyreactivity
QVQLVESGGGLVQAGGSLRLSCAASGSIFDGNAMGWYSQAPGKERELVAAITTDYRTYYADSVKGRFTISRDNAKNTFYLQMNSLKPEDTAVYYCNVVIYYFNSRTVYYDYDYWGQGTQVTVSS	high polyreactivity
QVQLVESGGGLVQAGGSLRLSCAASGSIFDGYAMGWYRQAPGKERELVASISSGGSTNYADSVKGRFTISRDNAKNTVYLQMNSLKPEDTAVYYCAAEWVWYKWEFEYWGQGTQVTVSS	high polyreactivity
QVQLVESGGGLVQAGGSLRLSCAASGSIFDGYAMGWYSQAPGKEREFVASIRFSTGRTYYADSVKGRFTISRDNAKNTVYFQMNSLKPEDTAVYYCNAPQGFVWRYSSWGPYDYWGQGTQVTVSS	high polyreactivity
QVQLVESGGGLVQAGGSLRLSCAASGSIFDIYAMGWYRQAPGKERELVAAISWNGGDTTYADSVKGRFTISRDNEKNTVYLQMNSLKPEYTAVYYCAADLGYWVADYYWGQGTQVTVSS	high polyreactivity
QVQLVESGGGLVQAGGSLRLSCAASGSIFDLNAMGWYRQAPGKERELVAAISKSGGSTYYADSVKGRFTISRDNAKNTVYLQMNSLKPEDTAVYYCAARYHEPGYSYKFWGQGTQVTVSS	low polyreactivity
